The subject of series [1] is HeLa Kyoto. Briefly: solubility in G1/S (NP-40 vs SDS abundance) (log2 ratio); higher = more soluble. Particulars: cell cycle stage: G1/S.
Series [2] relates to HeLa Kyoto. Briefly: melting temperature (median over replicates), in situ; higher = more thermally stable.
For series [3], the system named is HeLa Kyoto. Kind of series: solubility change mitosis vs G1/S (difference of NP-40 vs SDS log2 ratios) (log2 ratio difference); higher = more soluble in mitosis.
The test system of series [4] is HeLa Kyoto. Kind of series: thermal stability score vs G1/S (z-score of summed log2 fold changes over temperatures); higher = more thermally stable than in G1/S.
[5] abbreviates: cell cycle stage: early G1 (4.5 h after nocodazole release).

Consider six sequences from the supplement of paper PMC5998384.
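For melting temperature (median over replicates), in situ in this document: HeLa Kyoto cells synchronized by double thymidine or nocodazole block, proteins quantified by TMT10plex mass spectrometry, three independent biological replicates.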
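For solubility change mitosis vs G1/S (difference of NP-40 vs SDS log2 ratios) in this document: synchronized HeLa Kyoto cells (double thymidine block for G1/S, nocodazole release for mitosis), protein amounts in NP-40 versus SDS lysates quantified by mass spectrometry, three biological replicates.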
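For solubility in G1/S (NP-40 vs SDS abundance) in this document: HeLa Kyoto cells arrested at G1/S by double thymidine block, proteins quantified by TMT10plex mass spectrometry in mild NP-40 versus SDS extracts, three biological replicates.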
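For thermal stability score vs G1/S (z-score of summed log2 fold changes over temperatures) in this document: synchronized HeLa Kyoto cells, proteins quantified by TMT10plex mass spectrometry, three biological replicates, mitosis taken 0.5 h after nocodazole release, G1/S directly after double thymidine block.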

For “MAAAAVSESWPELELAERERRRELLLTGPGLEERVRAAGGQLPPRLFTLPLLHYLEVSGCGSLRAPGPGLAQGLPQLHSLVLRRNALGPGLSPELGPLPALRVLDLSGNALEALPPGQGLGPAEPPGLPQLQSLNLSGNRLRELPADLARCAPRLQSLNLTGNCLDSFPAELFRPGALPLLSELAAADNCLRELSPDIAHLASLKTLDLSNNQLSEIPAELADCPKLKEINFRGNKLRDKRLEKMVSGCQTRSILEYLRVGGRGGGKGKGRAEGSEKEESRRKRRERKQRREGGDGEEQDVGDAGRLLLRVLHVSENPVPLTVRVSPEVRDVRPYIVGAVVRGMDLQPGNALKRFLTSQTKLHEDLCEKRTAATLATHELRAVKGPLLYCARPPQDLKIVPLGRKEAKAKELVRQLQLEAEEQRKQKKRQSVSGLHRYLHLLDGNENYPCLVDADGDVISFPPITNSEKTKVKKTTSDLFLEVTSATSLQICKDVMDALILKMAEMKKYTLENKEEGSLSDTEADAVSGQLPDPTTNPSAGKDGPSLLVVEQVRVVDLEGSLKVVYPSKADLATAPPHVTVVR [LRRC47]”, the “solubility in G1/S (log2)” value in the series on HeLa Kyoto [1] amounted to 0.238. Besides, the melting temperature with HeLa Kyoto [2] (cell cycle stage: G1/S) was 53 °C; in the series on HeLa Kyoto [2] (cell cycle stage: mitosis), 52.2 °C. Besides, the “solubility change mitosis (log2)” value in the series on HeLa Kyoto [3] stood at 0.0172. Further, the thermal stability score in the series on HeLa Kyoto [4] (setting [5]) was -0.334; with HeLa Kyoto [4] (cell cycle stage: mitosis) it was -1.47.
Consider “MAAAAWLQVLPVILLLLGAHPSPLSFFSAGPATVAAADRSKWHIPIPSGKNYFSFGKILFRNTTIFLKFDGEPCDLSLNITWYLKSADCYNEIYNFKAEEVELYLEKLKEKRGLSGKYQTSSKLFQNCSELFKTQTFSGDFMHRLPLLGEKQEAKENGTNLTFIGDKTAMHEPLQTWQDAPYIFIVHIGISSSKESSKENSLSNLFTMTVEVKGPYEYLTLEDYPLMIFFMVMCIVYVLFGVLWLAWSACYWRDLLRIQFWIGAVIFLGMLEKAVFYAEFQNIRYKGESVQGALILAELLSAVKRSLARTLVIIVSLGYGIVKPRLGVTLHKVVVAGALYLLFSGMEGVLRVTGAQTDLASLAFIPLAFLDTALCWWIFISLTQTMKLLKLRRNIVKLSLYRHFTNTLILAVAASIVFIIWTTMKFRIVTCQSDWRELWVDDAIWRLLFSMILFVIMVLWRPSANNQRFAFSPLSEEEEEDEQKEPMLKESFEGMKMRSTKQEPNGNSKVNKAQEDDLKWVEENVPSSVTDVALPALLDSDEERMITHFERSKME [TMEM87A]”, for which, in the series with HeLa Kyoto [1], the “solubility in G1/S (log2)” value is -0.0314. The melting temperature with HeLa Kyoto [2] (cell cycle stage: G1/S) came to 59 °C; in the series with HeLa Kyoto [2] (cell cycle stage: mitosis), 60.5 °C. In addition, the “solubility change mitosis (log2)” value in the series on HeLa Kyoto [3] is -0.117. In addition, the thermal stability score in the series with HeLa Kyoto [4] (setting [5]) was -4.37; in the series on HeLa Kyoto [4] (cell cycle stage: mitosis), -3.56.
As for “MAAAEEEPKPKKLKVEAPQALRENILFGMGNPLLDISAVVDKDFLDKYSLKPNDQILAEDKHKELFDELVKKFKVEYHAGGSTQNSIKVAQWMIQQPHKAATFFGCIGIDKFGEILKRKAAEAHVDAHYYEQNEQPTGTCAACITGDNRSLIANLAAANCYKKEKHLDLEKNWMLVEKARVCYIAGFFLTVSPESVLKVAHHASENNRIFTLNLSAPFISQFYKESLMKVMPYVDILFGNETEAATFAREQGFETKDIKEIAKKTQALPKMNSKRQRIVIFTQGRDDTIMATESEVTAFAVLDQDQKEIIDTNGAGDAFVGGFLSQLVSDKPLTECIRAGHYAASIIIRRTGCTFPEKPDFH [ADK]”, the “solubility in G1/S (log2)” value with HeLa Kyoto [1] was 0.242. Besides, the melting temperature was determined as 56.3 °C in the series on HeLa Kyoto [2] (cell cycle stage: G1/S) and 56.9 °C with HeLa Kyoto [2] (cell cycle stage: mitosis). Moreover, in the series with HeLa Kyoto [3], the “solubility change mitosis (log2)” value is -0.112. Besides, the thermal stability score with HeLa Kyoto [4] (setting [5]) was found to be 1.79; in the series on HeLa Kyoto [4] (cell cycle stage: mitosis), 2.86.
As for “MAAAFEASGALAAVATAMPAEHVAVQVPAPEPTPGPVRILRTAQDLSSPRTRTGDVLLAEPADFESLLLSRPVLEGLRAAGFERPSPVQLKAIPLGRCGLDLIVQAKSGTGKTCVFSTIALDSLVLENLSTQILILAPTREIAVQIHSVITAIGIKMEGLECHVFIGGTPLSQDKTRLKKCHIAVGSPGRIKQLIELDYLNPGSIRLFILDEADKLLEEGSFQEQINWIYSSLPASKQMLAVSATYPEFLANALTKYMRDPTFVRLNSSDPSLIGLKQYYKVVNSYPLAHKVFEEKTQHLQELFSRIPFNQALVFSNLHSRAQHLADILSSKGFPAECISGNMNQNQRLDAMAKLKHFHCRVLISTDLTSRGIDAEKVNLVVNLDVPLDWETYMHRIGRAGRFGTLGLTVTYCCRGEEENMMMRIAQKCNINLLPLPDPIPSGLMEECVDWDVEVKAAVHTYGIASVPNQPLKKQIQKIERTLQIQKAHGDHMASSRNNSVSGLSVKSKNNTKQKLPVKSHSECGIIEKATSPKELGCDRQSEEQMKNSVQTPVENSTNSQHQVKEALPVSLPQIPCLSSFKIHQPYTLTFAELVEDYEHYIKEGLEKPVEIIRHYTGPGDQTVNPQNGFVRNKVIEQRVPVLASSSQSGDSESDSDSYSSRTSSQSKGNKSYLEGSSDNQLKDSESTPVDDRISLEQPPNGSDTPNPEKYQESPGIQMKTRLKEGASQRAKQSRRNLPRRSSFRLQTEAQEDDWYDCHREIRLSFSDTYQDYEEYWRAYYRAWQEYYAAASHSYYWNAQRHPSWMAAYHMNTIYLQEMMHSNQ [DDX20]”, in the series with HeLa Kyoto [1], the “solubility in G1/S (log2)” value is -0.119. Also, the melting temperature turned out to be 47.5 °C in the series with HeLa Kyoto [2] (cell cycle stage: G1/S) and 48.8 °C in the series with HeLa Kyoto [2] (cell cycle stage: mitosis). Further, in the series with HeLa Kyoto [3], the “solubility change mitosis (log2)” value was determined as 0.084. The thermal stability score with HeLa Kyoto [4] (setting [5]) is -0.14; in the series with HeLa Kyoto [4] (cell cycle stage: mitosis) it was 3.36.
With “MAAAGAFRLRRAASALLLRSPRLPARELSAPARLYHKKVVDHYENPRNVGSLDKTSKNVGTGLVGAPACGDVMKLQIQVDEKGKIVDARFKTFGCGSAIASSSLATEWVKGKTVEEALTIKNTDIAKELCLPPVKLHCSMLAEDAIKAALADYKLKQEPKKGEAEKK [ISCU]”, in the series on HeLa Kyoto [1], the “solubility in G1/S (log2)” value came out at 0.467. The figures for the melting temperature with HeLa Kyoto [2] (cell cycle stage: G1/S) and in the series on HeLa Kyoto [2] (cell cycle stage: mitosis) were 53.3 °C and 54 °C, respectively. Also, the “solubility change mitosis (log2)” value in the series on HeLa Kyoto [3] is 0.0125. Moreover, the thermal stability score with HeLa Kyoto [4] (setting [5]) is -1.67; with HeLa Kyoto [4] (cell cycle stage: mitosis), -2.36.
With “MAAALRVAAVGARLSVLASGLRAAVRSLCSQATSVNERIENKRRTALLGGGQRRIDAQHKRGKLTARERISLLLDPGSFVESDMFVEHRCADFGMAADKNKFPGDSVVTGRGRINGRLVYVFSQDFTVFGGSLSGAHAQKICKIMDQAITVGAPVIGLNDSGGARIQEGVESLAGYADIFLRNVTASGVIPQISLIMGPCAGGAVYSPALTDFTFMVKDTSYLFITGPDVVKSVTNEDVTQEELGGAKTHTTMSGVAHRAFENDVDALCNLRDFFNYLPLSSQDPAPVRECHDPSDRLVPELDTIVPLESTKAYNMVDIIHSVVDEREFFEIMPNYAKNIIVGFARMNGRTVGIVGNQPKVASGCLDINSSVKGARFVRFCDAFNIPLITFVDVPGFLPGTAQEYGGIIRHGAKLLYAFAEATVPKVTVITRKAYGGAYDVMSSKHLCGDTNYAWPTAEIAVMGAKGAVEIIFKGHENVEAAQAEYIEKFANPFPAAVRGFVDDIIQPSSTRARICCDLDVLASKKVQRPWRKHANIPL [PCCB]”, the “solubility in G1/S (log2)” value in the series with HeLa Kyoto [1] was -0.114. In addition, the melting temperature with HeLa Kyoto [2] (cell cycle stage: G1/S) is 54.3 °C; with HeLa Kyoto [2] (cell cycle stage: mitosis), 54.9 °C. For the same sequence, in the series with HeLa Kyoto [3], the “solubility change mitosis (log2)” value was -0.114. In addition, the results for the thermal stability score in the series on HeLa Kyoto [4] (setting [5]) and in the series with HeLa Kyoto [4] (cell cycle stage: mitosis) were -1.53 and -1.91, respectively.
